Measured values: the supplement of paper PMC12067230

B1: F-15-Q; numbered along this chain (parent)
chain: EASNCFAIRHFENKFAVETLICFNLFLNSQEKHY

Variants of: B1
Experiment: amyloid nucleation score relative to WT ADan (yeast Sup35 reporter selection) (log enrichment difference); higher = more amyloid nucleation
Procedure: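 Deep mutational scan of the ADan peptide fused to the Sup35 nucleation domain (SupN) in S. cerevisiae [psi-pin-], covering all single amino-acid substitutions and stop truncations (truncations = sequence up to the stop). After 24 h Cu2+ induction, cells were selected on -ADE-URA plates for 7 d at 30 °C. The nucleation score is log enrichment (output/input, deep sequencing) minus that of WT ADan, as the error-weighted mean of 3 biological replicates (DiMSum).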

Amyloid nucleation score of substitutions, site by site:
F15: Q -0.502; N -0.337; P 0.782; E -2.18; C -0.147; K -1.37; G 0.818; L -0.25; W -1.15; R -2.18; Y 0.0276; D -2.5; A 0.534; I 0.203; V 0.0927; H -2.51; M 0.405; S -0.453; T -0.00209
S3: R -0.46; I -1.1; C 0.601; V -0.392; H -0.359; M 0.163; E 0.224; G 0.112; A 0.258; Y 0.296; Q -0.501; P 0.338; T -0.349; L -0.738; D 0.481; N 0.0448; K 0.21; W -0.398; F -0.00261
V17: T -0.513; Y -2.81; G 0.953; C 0.711; D -0.492; M -1.07; K 0.416; I 0.523; S 0.586; H -1.16; Q -1.12; F -0.0103; E -1.74; P 0.114; L -0.705; R 0.126; W -0.301; N -0.235; A 0.689
C5: H 0.0549; A 0.274; V -0.199; L -0.0462; P 0.685; W -1.36; R 0.0293; T -0.0743; E 0.484; I -0.166; K -0.223; Y -0.00901; G 0.214; N 0.0664; F 0.0304; S 0.0127; M 0.796; D 0.699; Q 0.396
I8: H 0.873; C 0.524; K 0.701; R 0.781; Y 0.183; F 0.15; P 0.188; T 0.634; V 0.0841; S 0.471; E 0.604; Q 0.519; L 0.288; D 0.678; N 0.497; A 0.49; M 0.354; W 0.464; G 0.834
F6: R 0.678; K 0.8; V -0.127; D 0.634; L -0.5; I -0.609; N 0.646; S 0.477; A 0.0803; Y 0.351; E 0.683; M -0.0809; Q 0.362; H 0.563; G 0.176; W 0.168; P 0.53; C 0.408
A16: H 0.76; C 0.159; Q 0.708; T 0.448; E 1.02; K 0.514; F 0.651; G 0.407; S 0.414; M -0.212; P -1.2; L -0.774; W -0.102; R 0.372; V -0.233; Y 0.572; D 0.736; I -0.647; N 0.755
N4: Q -0.267; W -3.34; S -0.879; P -0.352; L -4.8; C -2.58; M -4.92; F -4.13; V -4.24; R -0.0776; G -2.24; I -3.04; H -0.547; E 0.296; Y -2.45; D 0.376; T -2.19; K 0.0897; A -3.1
H10: F -0.478; V 0.0906; E 0.551; S -0.245; I 0.111; D 0.76; C 0.429; K 0.566; Q 0.00592; A 0.402; M -0.511; Y -0.291; W -0.926; R 0.227; G 0.122; N -0.16; T 0.0221; P 0.798; L -0.281
A7: I -0.415; P 0.577; W -0.43; Q 0.436; N 0.744; G 0.45; K 0.0182; V 0.125; Y 0.529; D -0.2; R 0.12; H 0.394; M -0.0811; S 0.0708; L -1.17; C 0.601; E 0.0742; T -0.0425; F 0.173
E18: A -0.809; G 0.127; M -3.07; I -3.49; L -2.63; D 0.406; H -0.855; N 0.236; Q -0.141; F -2.56; C -1.06; K 0.239; P 0.645
A2: G 0.0812; S 0.208; M -1.1; L -1.51; I -1.13; V -1.22; K -0.117; P 0.0538; E 0.464; H 0.353; D 0.518; C 0.581; T -0.12; W -0.655; N 0.137; Q 0.125; Y -0.52; F -1.28; R -0.078
N13: T -0.39; V 0.195; D 0.0178; C -0.187; G 1.19; Q 0.539; R -1.97; M -0.696; L -0.652; Y -1.67; S -0.991; P -0.534; A -0.453; E -0.506; H -1.45; W -0.378; I -0.0116; F -0.221; K -0.309
E1: W 0.00448; K -1.2; L -1.03; C 0.179; Y 0.135; G 0.0173; I -1.07; F -1.27; T -1.09; A 0.401; Q -0.0134; V 0.419; P 0.117; S -0.005; H -0.752; R -1.76; M -0.555; N 0.0879; D -0.0528
K14: Q 0.601; M 0.629; N 0.701; R -0.195; T 0.665; L 0.488; A 0.253; S 0.341; F 0.137; W 0.0928; G -0.903; E 0.00624; I 0.391; D 0.152; C 0.65; V 0.207; P 0.000567; H 1.04; Y 0.185
R9: I -0.484; D 0.286; V -0.535; S 0.143; N 0.528; Q 0.474; H -0.0444; A 0.274; C 0.0357; E -0.741; M 0.735; L -0.614; T 0.386; G 0.614; K -0.189; F -0.221; W -0.819; Y 0.0138
F11: Q 0.646; N -0.169; K 0.435; A 0.14; C 0.247; M 0.968; P 0.683; H -0.0333; E 0.0736; T 0.236; S -0.135; R 0.366; Y 0.379; L 0.0755; I 0.216; W -0.14; G 0.144; V 0.671; D -0.0408
E12: H 0.13; Y -0.651; V -2.02; R -0.892; Q -0.321; D 0.334; N -0.269; A -0.733; F -2.21; G -0.627; C -0.751; L -2.5; K -0.108; I -3.73; P 0.357; T -0.329; M -1.67; W -2.66; S -0.259
